From patent US20050136043A1, “TGFbeta signaling inhibitors” (Ludwig Institute for Cancer Research, priority 2003, published 2005)

Tests used:
SAPKR2 = SAPKR2 (Homo sapiens, UniProt P45984); assay: In vitro kinase assay of kinase expressed in COS-7 cells; format: biochemical; details: 10 μM peptide, FIG. 5
Description: (§1) For in vitro kinase assay of type I and type II TGFβ family receptors, p38α and SAPKα2 kinases, COS-7 cells were transfected with the kinase expression vectors or the control empty pcDNA3 vector using the DEAE-dextran method. Proteins were extracted in a lysis buffer (50 mM Tris-HCl, pH 7.5, 50 mM NaCl, 1% NP-40, 10 μg/mL aprotinin, 0.1 mM PMSF). HA-tagged proteins (ALK1 to ALK7, p38R, SAPKR2) were immunoprecipitated with anti-HA antibody (12CA5; Roche); His6-tagged proteins (type II receptors) were precipitated with Ni-NTA agarose (Qiagen). The precipitates were washed in extraction buffer, with 20 mM imidazole for Ni-NTA agarose-precipitated proteins, and two times with kinase buffer (20 mM HEPES, pH 7.4, 10 mM MgCl2, 2 mM MnCl2, 1 mM DTT). The kinase reaction was initiated by addition of 20 μL of kinase buffer containing 0.5 μCi of [γ-32P]ATP, 5.0 μM ATP, and inhibitory peptides at a final concentration of 10 μM. The reaction was performed at 22° C. for 20 min and terminated by addition of SDS-containing sample buffer and boiling for 5 min. The reaction products were analyzed by SDS-PAGE and exposure in a Fuji X2000 phosphorimager. Equal loading was controlled by immunoblotting aliquots of the samples with a HA probe (Y-11; Santa Cruz) or anti-His antibody (Qiagen).
(§2) To evaluate whether the substrate-mimicking peptides affect kinases of type I and type II reptors of the TGFβ family, we studied the influence of peptides on authophosphorylation of all known mammalian type I receptors [ALK-1, ActR-I (ALK-2), BMPR-IA (ALK-3), ActR-IB (ALK-4), TβR-I (ALK-5), BMPR-IB (ALK-6), and ALK-7], TβRII, ActR-II, BMPR-II, p38R, and SAPKR2 (FIG. 5). The kinases were expressed in COS-7 cells and purified by using specific anti-tag antibodies or Ni-NTA agarose, and kinase activity was tested in the presence of peptides.

p38R = p38R (Homo sapiens, UniProt Q16539); assay: as above; format: biochemical; details: 10 μM peptide, FIG. 5
Sequence of p38R (Q16539 whole entry): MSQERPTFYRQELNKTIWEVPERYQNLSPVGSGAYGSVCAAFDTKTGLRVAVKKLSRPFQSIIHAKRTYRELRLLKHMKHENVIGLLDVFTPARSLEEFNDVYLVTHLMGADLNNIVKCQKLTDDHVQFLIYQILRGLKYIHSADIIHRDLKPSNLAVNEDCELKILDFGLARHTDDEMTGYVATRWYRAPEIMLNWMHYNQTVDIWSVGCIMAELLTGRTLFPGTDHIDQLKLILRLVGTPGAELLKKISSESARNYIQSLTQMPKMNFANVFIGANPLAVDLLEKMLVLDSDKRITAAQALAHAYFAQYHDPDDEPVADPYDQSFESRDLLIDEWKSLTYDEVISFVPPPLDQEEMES
Description: as §1, §2

[1] = system: phosphorylation of endogenous Smad2 by TβR-I in Mv1Lu cells; assay: TGFβ1-dependent phosphorylation of endogenous Smad2 in Mv1Lu cells (pS2 immunoblot); format: cell-based; details: Mv1Lu cells pretreated with peptide, 15 min TGFβ1, FIG. 6A
GST-TβR-I = target: T1, GST-TβR-I (Homo sapiens, UniProt P36897, T204D); assay: GST-TβR-I autophosphorylation assay; format: biochemical; details: peptides at 1 and 10 μM, FIG. 4A
T1 construct: the complete cytoplasmic part (amino acid residues 148-503) of constitutively active TβR-I (T204D) FLAG-tagged at the C-terminus; made in house; host or cells: E. coli
T1 sequence (P36897 148-503 T204D): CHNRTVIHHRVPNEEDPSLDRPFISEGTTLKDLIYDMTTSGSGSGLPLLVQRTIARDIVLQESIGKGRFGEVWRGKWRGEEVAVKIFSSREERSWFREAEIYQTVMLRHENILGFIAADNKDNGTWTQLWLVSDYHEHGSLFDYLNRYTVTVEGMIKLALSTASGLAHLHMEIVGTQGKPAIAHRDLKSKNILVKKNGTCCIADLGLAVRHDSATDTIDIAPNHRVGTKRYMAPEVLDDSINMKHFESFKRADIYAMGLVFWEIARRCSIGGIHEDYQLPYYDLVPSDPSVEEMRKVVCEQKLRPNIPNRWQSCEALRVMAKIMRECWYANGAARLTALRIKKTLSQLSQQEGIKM
Description: In vitro kinase assay: GST-TβRI activity was assayed in vitro using the known TβR-I substrates GST-Smad3deltaMH1, GST-Smad2; GST-Smad1 was used as a control for specificity. The reaction mixture (20 μl) contained 20 mM HEPES (pH 7.4), 10 mM MgCl2, 2 mM MnCl2, 1 mM dithiothreitol (DTT), 5 μM ATP plus 0.5 μCi [γ^32P]ATP (Redivue, Amersham Biosciences), and inhibitors at different concentrations. The reaction was initiated by an addition of 0.02 μg purified GST-TβRI, followed by incubation at 22° C. for 20 min. Reaction was terminated by addition of 5 μl of 5× SDS-sample buffer. Samples were subjected to SDS-PAGE followed by analysis in a FujiX2000 phosphorimager. For all in vitro enzyme assays, the percent inhibition was calculated as 100×(1-Ai/A0), where Ai and A0 are levels of GST-Smad phosphorylation in the presence and absence of inhibitors, respectively. […] Phosphorylated GST-Smad3deltaMH1 and autophosphorylated GST-TβRI were analyzed by tryptic phosphopeptide mapping, as described previously.
A GST-TβR-I autophosphorylation assay was performed in the absence or presence of antp-Sm2S (SEQ ID NO:3), antp-Sm2A (SEQ ID NO:2) and antp-Sm5A (SEQ ID NO:4) peptides at concentrations of 1 and 10 μM, as indicated (FIG. 4A).

RQIKIWFQNRRMKWKKTQMGSPSVRCSSMS (listed as Homo sapiens) [antp-Sm2S, penetratin fused to the C-terminus of wild-type Smad2]
Effect on SAPKR2 kinase (SAPKR2): without any effect
Effect on p38R kinase (p38R): without any effect
Effect of peptides on TGFβ1-dependent phosphorylation of endogenous Smad2 [1]: weaker affect
Inhibition of autophosphorylation of GST-TβR-I (GST-TβR-I): inhibited autophosphorylation

RQIKIWFQNRRMKWKKTQMGSPSVRCSAMA (listed as Homo sapiens) [antp-Sm2A]
Effect on SAPKR2 kinase (SAPKR2): without any effect
Effect on p38R kinase (p38R): without any effect
Inhibition of TGFβ1-dependent phosphorylation of endogenous Smad2 compared to nontreated cells [1]: 67%
Inhibition of autophosphorylation of GST-TβR-I (GST-TβR-I): had a stronger effect
